Where only a bound is given, the exact number is not on record here.

Here are results for four substances from US20110200552A1.

Experiment [1] addresses death receptor 4 (DR4, TRAIL-R1) on cells (UniProt O00220). Kind of experiment: cell-based or functional assay.
Experiment [2] deals with death receptor 5 (DR5, TRAIL-R2) on cells (UniProt O14763). Kind of experiment: cell-based or functional assay.
The next experiment addresses rhTRAIL variant D218Y. Kind of experiment: competitive ELISA, soluble DR5-Ig varied, immobilised DR4-Ig. (In an ELISA, binding on a coated surface is turned into a signal by an enzyme label.)
In another experiment the target is rhTRAIL variant D218H. Described as above.

Chain of WT rhTRAIL (TRAIL amino acids 114-281 preceded by a methionine) (ligand) (P50591 114-281): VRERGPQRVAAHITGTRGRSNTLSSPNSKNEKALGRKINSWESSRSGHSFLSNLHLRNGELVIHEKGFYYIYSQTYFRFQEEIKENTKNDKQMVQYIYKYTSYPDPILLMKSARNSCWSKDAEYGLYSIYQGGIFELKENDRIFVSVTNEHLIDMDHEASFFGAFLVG

In the case of rhTRAIL variant S215D (ligand), in experiment [1], the apoptosis (Annexin V staining) in EM-2 cells, 24 h; fold lower concentration than WT was 5 fold and the apoptosis (Annexin V staining) in ML-1 cells, 24 h; fold lower concentration than WT was found to be 2 fold. With “WT rhTRAIL (TRAIL amino acids 114-281 preceded by a methionine) (ligand)”, the apoptosis (Annexin V positivity) in Colo205 cells in experiment [2] was 20 ng/mL. With “DR5-Ig receptor chimera (from UniProt O14763 56-182) (Fc fusion)”, the fold less efficient in achieving 50% reduction of binding, against rhTRAIL WT with rhTRAIL variant D218Y and with rhTRAIL variant D218H was more than 9 fold throughout. In experiment [1], rhTRAIL variant R149I (ligand) gave an apoptosis (Annexin V staining) in EM-2 cells, 24 h; fold lower concentration than WT of 5 fold and an apoptosis (Annexin V staining) in ML-1 cells, 24 h; fold lower concentration than WT of 2 fold.
